B1: NHase Seq ID No. 14 and 16: nitrile hydratase of Brevibacterium linens strain 32B.1, α-subunit SEQ ID NO 14, β-subunit SEQ ID NO 16 (protein)
alpha: MSDKIRSQEEIAARVKALESMLIEKGIMTTQAIDRLVEIYENEVGPQLGAKVVAKAWSDPGFKSRLLTDATGACGELGIGGLQGEDMVVVEDTDTVHNVIVCTLCSCYPWPVLGLPPNWYKDPQYRAAICREPRKVLSESFGYTVSNDVEIRVWDSSSEMRYWVLPRRPDGTDGWTEDQLADLVSRDSMIGVGPTAKAQS
beta: MNGVFDLAGTDGLGPVVVPDDEPIFRAEWEKAAFGMFSMCFRGGFFGVDQFRYGMEQIDPAVYLKSPYYEHWIHTVEYHGERTGQLDLDELDRRTEYYLANPDAPMPEHADDPELLAFINAVVPAGAPAKRESDKIARFQVGDTVKVLRDSPRGHTRRARYIRGATGEIVLAHGTFIYPDTAGNNLGECPEHVYTVRFTAEELWGAETAEPNQSVYFDVWDPYIELVTPRGAQSA
modifications: Brevibacterium linens, strain 32B.1
B2: NHase Seq ID No. 6 and 8: nitrile hydratase of Raoultella terrigena strain 37.1, α-subunit SEQ ID NO 6, β-subunit SEQ ID NO 8 (protein)
alpha: MSHKHDHDHTEPPIDIELRVRALESLLQEKGLIDPAALDELIDTYEHKVGPRNGAQVVARAWSDPEYKRRLMENATAAISELGFSGIQGEDMLVVENTPDVHNVTVCTLCSCYPWPVLGLPPVWYKSAPYRSRIVIDPRGVLAEFGLHIPESKEIRVWDSSAELRYLVLPERPAGTDGWSEAQLSELISRDSMIGTGVVTAP
beta: MNGIHDLGGMHGFGPIPTEENEPYFHHEWERRVFPMFASLFVGGHFNVDEFRHSIECMPPADYLQSSYYEHWLHAFETLLLAKGVITVDELWGGAKPTLCKPGTPVLTQDMVSMVVSTGGSARVSHDVAPRFRVGDRVRTKNFNPTTHTRLPRYARDKVGRIEIAHGVFITPDTAAHGLGEHPQHVYSVSFTAQELWGEPRPDNVFIDLWDDYLEEA
modifications: Raoultella terrigena, strain 37.1
B3: NHase Seq ID No. 10 and 12: nitrile hydratase of Pantoea sp. strain 17.3.1, α-subunit SEQ ID NO 10, β-subunit SEQ ID NO 12 (protein)
alpha: MSNHDVLPSESALKVRAIQSLLTEKGLLDPQTSDAIVDYFENKIGPRNGASVVARAWLDAEFKKKLLEDGTTAISEMGFSGAEGAVIHVLENTDAVHNIVVCTLCSCYPWPVLGLPPIWFKSAQYRSRVVIDPRGVLKEFGTELPPEKEIRVWDSNAEIRYFVLPQRPAGTENLSEEQLAARVTRDSMIGTGIL
beta: MNGIHDCGGMQNLGAIPLEENEPVFHAEWEKAILVMTINGFLSGSILVDNFRHQIEKMPASEYLLTSYYEHWVFAMEHLLINNNTITREALESRMAELAERVEMSAIAKETFLELIKTTPNYHRESDAIARFAPGDTIRTCELNTPGHTRLPRYARDKTGVIIAMYGVCVFPDSLTRDGSEDPQHVYLVQFSSADLWGAGSEPFTVSLSLFESYIAEKVE
modifications: Pantoea sp., strain 17.3.1

Legend:
Format in all cases: biochemical
[1] = tested on: NHase from Raoultella terrigena, 77.1; test: Substrate spectrum, relative activity of the NHase from strain 77.1; details: cell free crude cell extracts; 2-phenylpropionitrile set to 100%
Protocol: (§1) If not otherwise indicated enzyme samples were prepared as follows: the cells from 1 ml of the culture were washed with 50 mM Tris/HCl pH 7.5 and resuspended in 750 μl of the same buffer. This suspension was incubated at 30° C. in a thermomixer at 1000 rpm. The biotransformation was started by addition of the substrate 2-phenylpropionitrile (PPN) in 50 mM Tris/HCl pH 7.5. The concentration of the substrate was 1 mM, if not otherwise stated. The reaction was stopped after 1 min, 5 min or 10 min as indicated by addition of 1 M HCl. Cells were removed by centrifugation and the supernatant analysed by HPLC for the presence of the corresponding amide. The HPLC analysis was carried out on a system comprising a Surveyor 4 channel Pump, AutoSampler and UVNIS detector at 210 nm from Thermo Finnigan on a Grom-Sil 1200DS-3 cp 3 μm (125×4.6 mm) reverse phase column. As mobile phase, acetonitrile and 0.3% H3PO4 were used in a ratio of 50:50 at a flow of 0.7 ml/min, respectively.
(§2) For the enzyme according Seq ID No. 2 and 4 (Raoultella terrigena, 77.1) and Seq ID. No. 18 and 20 (Klebsiella oxytoca, 38.1.2) the substrate spectrum was determined. The activities were compared to the activity towards 2-phenylpropionitrile which was set to 100%. Both enzymes are capable of the conversion of aliphatic as well as aromatic substrates.

[2] = tested on: NHase from Klebsiella oxytoca, 38.1.2; test: Substrate spectrum, relative activity of the NHase from strain 38.1.2; details: lyophilized cells; 2-phenylpropionitrile set to 100%
Protocol: as §1, §2

[3] = Enantioselectivity of NHases towards rac-mandelonitrile (washed cells, chiral HPLC); details: for enantiopreference: (R/S)-mandelonitrile; for Eapp-value: kinetic resolution of (R/S)-mandelonitrile; for Eapp-value heterologously expressed / Eapp-value homologously expressed: rac-mandelonitrile; for Eapp-value heterologously expressed: heterologously expressed NHase; for Eapp-value homologously expressed: homologously expressed NHase
Protocol: For the determination of enantioselectivity towards rac-mandelonitrile and 2-phenylpropionitrile 40-50 mg of washed cells were resuspended in 1 ml of 50 mM Tris/HCl pH 7.5. 100 μl of cell suspension were mixed with 800 μl 50 mM Tris/HCl pH 7.5 and incubated at 30° C. in a thermomixer at 1000 rpm. The biotransformation was started by addition of 100 μl of 10 mM rac-mandelonitrile or rac-2-phenylpropionitrile in 50 mM Tris/HCl pH 7.5. The reaction was stopped by addition of 100 μl 1M HCl after 1, 5 or 10 min. Cells were removed by centrifugation and the supernatant analysed by chiral HPLC for the presence of mandeloamide and phenylpropionamide, respectively. rac-Mandeloamide was analysed on a HPLC comprising a Surveyor 4 channel Pump, AutoSampler and UVNIS detector at 210 nm from Thermo Finnigan on a Nucleodex β-OH column (Macherey & Nagel) using 50% methanol/water:water (40:60) as mobile phase at a flow rate of 0.7 ml/min. The apparent enantiomeric ratio (Eapp) of the conversion of mandelonitrile was calculated according to Straathof and Jongejan for […] (see example 9). In case of 2-phenylpropionamide, the samples were lyophilized and resuspended in n-hexane: 2-propanol (80:20). Prior to injection, the samples were additionally dried with sodium sulfate and were centrifugated at 16,000 g for 5 min. The supernatants were analyzed using a Chiracel OD column (Daicel) on a Spectra System (AS3000, P2000, UV2000 at 210 nm) from Thermo Separation Products with n-hexane: 2-propanol (80:20) as mobile phase at a flow rate of 0.5 ml/min. The enantiomeric ratio (E) of the conversion of PPN was calculated according to Chen et al. […]

[4] = Activity of enzyme samples after heterologous expression of NHases in E. coli towards PPN; details: 1 mM PPN; stopped after 1 min; host E. coli BL21 (DE3) (a) or E. coli Rosetta (DE3) (b)
Protocol: The amplified α-subunits were ligated to pET22b whereas the β-subunits were ligated to pET26b by use of the unique NdeI and XhoI restriction enzyme recognition sites. E. coli BL21 (DE3) or E. coli Rosetta (DE3) was cotransformed with the vectors carrying the genes for the corresponding α- and β-subunits of the NHases. Freshly transformed cells were grown over night at 37° C. in 5 ml LB-medium containing 100 μg/ml ampicillin, 25 μg/ml kanamycin and 2% (w/v) glucose. In case of E. coli Rosetta (DE3) 12.5 μg/ml chloramphenicol was additionally used. 1 ml of this culture was used to inoculate 100 ml of LB-medium containing 100 μg/ml ampicillin, 25 μg/ml kanamycin and 1% (w/v) glucose. Cells were incubated at 20° C. or 30° C. on a gyratory shaker at 100 rpm. At an optical density O.D.595=1 cells were induced by addition of 100 μg/ml IPTG. Simultaneously, CoCl2*6H2O was added in a concentration of 250 μM. When the P16K activator protein from the strain Brevibacterium linens was coexpressed with the corresponding NHase E. coli Rosetta (DE3) pET22—32B1α pET26—32B.1β pBBR5—32B_P16K was grown in LB-medium containing 100 μg/ml ampicillin, 25 μg/ml kanamycin, 12.5 μg/ml chloramphenicol and 10 μg/ml gentamycin and 1% (w/v) glucose. Samples were taken 24 h after induction.
as §1

[5] = Enantioselectivity of NHases towards rac-2-phenylpropionitrile (washed cells, chiral HPLC); details: for E-value: kinetic resolution of rac-2-phenylpropionitrile; for enantiopreference: rac-2-phenylpropionitrile
Protocol: For the determination of enantioselectivity towards rac-mandelonitrile and 2-phenylpropionitrile 40-50 mg of washed cells were resuspended in 1 ml of 50 mM Tris/HCl pH 7.5. 100 μl of cell suspension were mixed with 800 μl 50 mM Tris/HCl pH 7.5 and incubated at 30° C. in a thermomixer at 1000 rpm. The biotransformation was started by addition of 100 μl of 10 mM rac-mandelonitrile or rac-2-phenylpropionitrile in 50 mM Tris/HCl pH 7.5. The reaction was stopped by addition of 100 μl 1M HCl after 1, 5 or 10 min. Cells were removed by centrifugation and the supernatant analysed by chiral HPLC for the presence of mandeloamide and phenylpropionamide, respectively. rac-Mandeloamide was analysed on a HPLC comprising a Surveyor 4 channel Pump, AutoSampler and UVNIS detector at 210 nm from Thermo Finnigan on a Nucleodex β-OH column (Macherey & Nagel) using 50% methanol/water:water (40:60) as mobile phase at a flow rate of 0.7 ml/min. The apparent enantiomeric ratio (Eapp) of the conversion of mandelonitrile was calculated according to Straathof and Jongejan for asymmetric catalysis (see example 9). In case of 2-phenylpropionamide, the samples were lyophilized and resuspended in n-hexane: 2-propanol (80:20). Prior to injection, the samples were additionally dried with sodium sulfate and were centrifugated at 16,000 g for 5 min. The supernatants were analyzed using a Chiracel OD column (Daicel) on a Spectra System (AS3000, P2000, UV2000 at 210 nm) from Thermo Separation Products with n-hexane: 2-propanol (80:20) as mobile phase at a flow rate of 0.5 ml/min. The enantiomeric ratio (E) of the conversion of PPN was calculated according to Chen et al.

Molecule	rel. activity 77.1 [1]	rel. activity 38.1.2 [2]	enantiopreference [3]	Eapp-value [3]	Eapp-value heterologously expressed [3]	Eapp-value homologously expressed [3]	spec. activity [4]	vol. activity [4]	E-value [5]	enantiopreference [5]
CCC(C#N)c1ccccc1 (stereo not drawn) [2-phenyl-butyronitrile]	1%	18%	–	–	–	–	–	–	–	–
CC(C#N)c1ccccc1 (stereo not drawn) [2-phenyl-propionitrile]	100%	100%	–	–	–	–	–	–	–	–
N#Cc1cccnc1 [3-cyanopyridine]	21%	–	–	–	–	–	–	–	–	–
N#Cc1ccccc1 [benzonitrile]	18%	25%	–	–	–	–	–	–	–	–
N#CC(O)c1ccccc1 (stereo not drawn) [mandelonitrile]	5%	9%	–	–	–	–	–	–	–	–
N#CCc1ccccc1 [phenyl-acetonitrile]	1%	1%	–	–	–	–	–	–	–	–
butyronitrile	242%	281%	–	–	–	–	–	–	–	–
methacrylonitrile	109%	138%	–	–	–	–	–	–	–	–
B1	–	–	(S)	4	4	4	16.9 μkat/g cdw	25.3 μkat/L cultur	8	(S)
B2	–	–	(S)	18	18	17	2.8 μkat/g cdw	5.5 μkat/L cultur	47	(S)
B3	–	–	(S)	4	4	5	0.4 μkat/g cdw	0.6 μkat/L cultur	2	(S)

Reference: US8470576B2, “Group of novel enantioselective microbial nitrile hydratases with broad substrate specificity” (B.R.A.I.N. AG, priority 2006, dated 2013)
